Entries after “also recorded” stand apart in the source; their conditions may differ. Read-outs that look alike come from different tables or passages of the source.
Tests used:
[1] = Metabolic stability analysis (radio-HPLC) in PBS at 4 °C or FBS at 37 °C; type: in vitro ADME
Experimental: DOTA-PP-F11N, DOTA-INER-PP-F11N-1, and DOTA-INER-PP-F11N-2 were labeled with In-111 and Lu-177 for further experiments. The detection of free In-111 after ITLC extension was defined as 0% radiolabeling efficiency. […]
To measure the labeling efficiency, ITLC was performed on glass microfiber chromatography paper impregnated with a silica gel (Agilent Technologies, Santa Clara, CA, USA) as described previously. Briefly, the ITLC sheets were developed with 10% methanol as solvent (Rf free Lu-177 = 0, Rf Lu-177-labeled compounds = 1) and measured using a radioactive scanner (AR-2000 radio-TLC […] Imaging Scanner, Bioscan, France). The sample was mixed with acetonitrile at a 1:1 (v/v) ratio, followed by centrifugation at 16,000× g for 5 min. The resulting supernatant was subsequently analyzed using HPLC with UV (220[…]) and radio detector with a Zorbax SB-C18 column (Agilent Technologies, Santa Clara, CA, USA). The flow rate was 0.8 mL/min, with the gradient mobile phase going from 90% A […] buffer (0.1% TFA in water) and 10% B buffer (0.1% TFA in acetonitrile) to 90% B buffer […] within 20 min.

A431-CCK2R (−) cells = assay: In vitro binding and internalization assay, A431-CCK2R (−) cells; type: cell-based; conditions: 37 °C
Experimental: (§1) In vitro binding and internalization activities were measured using a gamma counter (WIZARD 1480, Perkin-Elmer). Briefly, A431-CCK2R (+) and A431-CCK2R (−) cells were seeded on 24-well plates (1 × 10^5 cells/well, Corning, NY, USA) for 12 h. The plated cells were treated with 30 ± 10 GBq/µmol of [^177Lu]Lu-DOTA-PP-F11N, [^177Lu]Lu-DOTA-INER-PP-F11N-1, or [^177Lu]Lu-DOTA-INER-PP-F11N-2 (1 mL/well) and then incubated at 37 °C for either 1 or 4 h. After incubation, the medium was collected, and the cells were then washed with ice-cold buffer. The medium and washed PBS were collected in tube 0. The washed cells were treated with glycine–HCl buffer (0.1 M, pH 3.0) and incubated for 10 min. After incubation, cells were washed again with glycine–HCl buffer. Both glycine-HCl buffer solutions were collected in tube 1. The washed cells were treated with 1 N NaOH (1 mL/well) and incubated for 10 min for cell lysis. After incubation, the cells were washed once with 1 N NaOH. The cell lysate solution was collected in tube 2. All tubes were analyzed using a gamma counter to detect radioactivity. Data were obtained from at least three independent experiments. The respective formulae for in vitro surface binding activity and internalization were as follows:Surface binding = tube 1/(tube 0 + tube 1 + tube 2) × 100%.Internalization = tube 2/(tube 0 + tube 1 + tube 2) × 100%.

A431-CCK2R (+) cells = assay: In vitro binding and internalization assay, A431-CCK2R (+) cells; type: cell-based; set-up: surface binding activity / internalization activity: concentration or dose not given beside the values; conditions: A431-CCK2R (+) cells, 37 °C
Experimental: as §1

[2] = tested on: A431-CCK2R (−)/A431-CCK2R (+) tumor-bearing mice; assay: NanoSPECT/CT imaging of tumor-bearing mice; type: in vivo
Experimental: (§2) To generate A431-CCK2R (+) and A431-CCK2R (−) tumor-bearing mice models, mice (3 per group) were inoculated subcutaneously with 6 × 10^6 cells, which were injected into the inner right back leg for A431-CCK2R (+) tumors and the left back leg for A431-CCK2R (−) tumors, respectively. These xenografts were monitored until the tumor volume reached approximately 200–500 mm^3 [57]. The mice were then randomized to subgroups for further experiments. The formula for calculating tumor volume (V) is V = 4/3πr^3.
The NanoSPECT/CT® plus scanner system (Mediso Medical Imaging Systems; Budapest, Hungary) was utilized to detect in vivo tumors in the in vivo animal models. Both A431-CCK2R (+) and A431-CCK2R (−) cancer cells were inoculated subcutaneously into the inner right leg and left back leg of the mice. Radiopharmaceuticals—[^111In]In-DOTA-PP-F11N, [^111In]In-DOTA-INER-PP-F11N-1, and [^111In]In-DOTA-INER-PP-F11N-2 (1 mCi)—were injected once the mean tumor volume reached approximately 200–500 mm^3. Inhalant (1–2% isoflurane) was used to anesthetize the mice during imaging acquisition. X-ray CT images and SPECT images were taken 4, 24, and 48 h after tail-vein injection. NanoSPECT imaging was acquired using nine multi-pinhole gamma detectors with high-resolution collimators. The energy window was set at 171 and 245 KeV ± 10%, the image size was set at 256 × 256, and the field of view was set at 60 mm × 100 mm.
For Lu-177, only 208 keV photons were used for imaging, with an energy window set at 208 keV ± 10%. Although Lu-177 also emits lower abundance photons at 113 keV, the 208 keV photon provides better image quality due to reduced scatter and higher energy resolution. Therefore, the gamma camera energy windows were specifically tailored to the photon emission profiles of each radionuclide to ensure optimal detection efficiency and image accuracy.
(§3) We investigated therapeutic responses in mice receiving [^177Lu]Lu-DOTA-PP-F11N, [^177Lu]Lu-DOTA-INER-PP-F11N-1, or [^177Lu]Lu-DOTA-INER-PP-F11N-2. A431-CCK2R (+) and A431-CCK2R (−) cells were implanted subcutaneously into the right and left inner hind legs of NOD/SCID mice. Once the tumors reached a volume of 200–500 mm^3, the mice were intravenously injected with either 200 μCi of [^177Lu]Lu-DOTA-PP-F11N, [^177Lu]Lu-DOTA-INER-PP-F11N-1, [^177Lu]Lu-DOTA-INER-PP-F11N-2, or PBS (as a non-radioactive control). The NanoSPECT/CT® plus scanner system (Mediso Medical Imaging Systems; Budapest, Hungary) was utilized to detect and image tumors in the mouse models. Tumor volumes were measured twice a week for 4 weeks.

[3] = Biodistribution study in tumor-bearing mice; type: in vivo; conditions: mouse, intravenous, total radioactivity, 72 h after tail-vein injection, tumor-bearing mice
Experimental: as §2
Mice were sacrificed via CO2 asphyxiation 72 h after intravenous injection of 50–100 μCi (50–100 μL) of radiolabeled DOTA-PP-F11N, DOTA-INER-PP-F11N-1, or DOTA-INER-PP-F11N-2 [58]. Tumors and organs of interest were collected for further pathological examinations. The PerkinElmer 2480 Automatic Gamma Counter (PerkinElmer, Waltham, MA, USA) was used to measure radioactivity; the data are presented as the percentage injected dose per gram of tissue (%ID/g).

A431-CCK2R (+) tumors = assay: Therapeutic responses to Lu-177-labeled CCK2R analogs in CCK2R-expressing cancer-bearing mice; type: in vivo; conditions: 200 μCi intravenously
Experimental: as §2, §3

[4] = Histopathological examinations (H&E) of mice after radiolabeled drug administration; type: in vivo; conditions: light microscopy
Source text: To investigate the pathological alterations in tumor-bearing mice receiving radiopharmaceuticals, […] tissues, including tumors, heart, liver, and kidneys, were collected. The specimens were first fixed using 10% buffered neutral formalin and then embedded in paraffin. Sections of 3–5 μm thickness were stained with H&E and examined using light microscopy (40 × and 20 ×).

[5] = Lu-177-labeled, 37 °C FBS, 144 h
[6] = labeled with Lu-177, each time point (Figure 2C, 4 °C PBS)

With `CCCC[C@H](NC(=O)[C@H](Cc1c[nH]c2ccccc12)NC(=O)CNC(=O)[C@H](Cc1ccc(O)cc1)NC(=O)[C@H](C)NC(=O)[C@@H](CCC(=O)O)NC(=O)[C@@H](CCC(=O)O)NC(=O)[C@@H](CCC(=O)O)NC(=O)[C@@H](CCC(=O)O)NC(=O)[C@@H](CCC(=O)O)NC(=O)[C@@H](CCC(=O)O)NC(=O)CN1CCN(CC(=O)O)CCN(CC(=O)O)CCN(CC(=O)O)CC1)C(=O)N[C@@H](CC(=O)O)C(=O)N[C@@H](Cc1ccccc1)C(N)=O` [[^177Lu]Lu-DOTA-PP-F11N, metal not drawn, reference compound] the metabolic stability ([1]; 4 °C PBS, 144 h after Lu-177 labeling) was “more than 95%”, the metabolic stability [1, 5] was “below 60%” and the internalization activity (A431-CCK2R (−) cells; 1 h) was 1.26 ± 0.06 %IA/106 cells. For the same compound, the surface binding activity (A431-CCK2R (−) cells; 1 h) was 3.42 ± 0.21 %IA/106 cells, the internalization activity (A431-CCK2R (−) cells; 4 h) was 1.29 ± 0.01 %IA/106 cells and the surface binding activity (A431-CCK2R (−) cells; 4 h) was 3.24 ± 0.15 %IA/106 cells. For the same compound, the internalization activity (A431-CCK2R (+) cells; 1 h) was 37.37 ± 3.04%, the surface binding activity (A431-CCK2R (+) cells; 1 h) was 6.60 ± 0.17% and the internalization activity (A431-CCK2R (+) cells; 4 h) was 71.44 ± 3.52%. For the same compound, the surface binding activity (A431-CCK2R (+) cells; 4 h) was 11.51 ± 3.16%, the “washout of radiotracer accumulation in both kidneys, time after injection” value ([2]; NanoSPECT/CT, accumulation from one hour) was “more than 48 h” and the “radiotracer accumulation in the tumor region on NanoSPECT/CT” value ([2]; tail-vein injection, Lu-177-labeled) was “relatively low”. The tissue uptake at 72 h ([3]; kidneys, read-out: radiotracer accumulation in the kidneys) was 14.2 ± 5.9 %ID/g, the tissue uptake at 72 h ([3]; tumor (A431-CCK2R (+)), read-out: tumor uptake of radiopharmaceuticals) was 0.33 ± 0.02 %ID/g and the “tumor volume at D23” value (A431-CCK2R (+) tumors) was 1884.72 ± 333.13 mm^3. For the same compound, the “histopathological changes in the kidneys” value [4] was “renal tubular necrosis (arrow 1), moderate renal tubular casts (arrow 2), slight renal tubular degeneration (arrow 3), and neutrophil infiltration (arrow 4); also recorded: moderate/severe renal tubular necrosis (arrow 1), moderate renal tubular casts (arrow 2), slight renal tubular degeneration (arrow 3), and slight infiltration of neutrophils (arrow 4)”, the “histopathological changes in the liver and heart” value [4] was “no significant histopathological changes” and the “histopathological changes in the kidneys” value ([4]; listed as PP-F11N) was “renal tubular necrosis and inflammation”.

In the case of “DOTA-(Glu)6-Ala-Tyr-Gly-Trp-Nle-Asp-Phe-NH2 [DOTA-PP-F11N, reference compound]”, the metabolic stability ([1]; In-111-labeled, 37 °C FBS (Figure 2B)) is reported as “less metabolic stability”, the metabolic stability ([1]; Lu-177-labeled, 37 °C FBS, 4 h) is reported as 94.6 ± 0.1% and the metabolic stability [1, 5] is reported as 56.4 ± 0.1%. For the same compound, the metabolic stability [1, 6] was “more than 90%”.

For “DOTA-Lys(-4-TBA)-6-AMBA-(Glu)6-Ala-Tyr-Gly-Trp-Nle-Asp-Phe-NH2 [DOTA-INER-PP-F11N-1]”, the metabolic stability [1, 5] was 99% and the metabolic stability [1, 6] was “more than 90%”.

With “DOTA-Lys(-4-TBA)-AHA-(Glu)6-Ala-Tyr-Gly-Trp-Nle-Asp-Phe-NH2 [DOTA-INER-PP-F11N-2]” the metabolic stability [1, 6] was “more than 90%”.
